Test results from patent US20180094051A1, “METHOD FOR INHIBITING LYMPHANGIOGENESIS BY ADMINISTRATION OF AN INHIBITOR OF THE CXCL12 PATHWAY” (Tsinghua University, priority 2012, published 2018).
“Also recorded” adds a separate entry of the source.

Experiments:
Format in all cases: cell-based
chemokine receptor CXCR4 [1] = assay: qRT-PCR of chemokine receptor mRNA in VEGF-C-stimulated lymphatic endothelial cells; conditions: VEGF-C-stimulated mouse lymphatic endothelial cells vs untreated cells
Experimental: The isolation and extraction of total RNA from cells was performed using TRIZOL reagent (purchased from Invitrogen) following the standard operations as described in the reagent instructions. 1 mL of TRIZOL was added to the primary lymphatic endothelial cells (about 1×10^6) collected by centrifugation, repeatedly pipetted up and down for 30 times, and then set aside at room temperature for 5 minutes. After centrifugation at 10,000×g at 4° C. for 15 minutes, the supernatant was […] gently. 0.2 mL of chloroform was added to the supernatant, vortexed vigorously for about 15 seconds, and then set aside at room temperature for 3 minutes. […]
The synthesis of first strand cDNA was performed using a Fermentas kit (RevertAid™ First Strand cDNA Synthesis Kits) according to the standard instructions. […] The reverse transcription product was used in subsequent PCR and fluorescence quantitative RT-PCR, and the rest of the product was stored in a refrigerator at −80° C.
Fluorescence Quantitative Real-Time PCR was performed using a kit from Stratagene (Brilliant II SYBR® Green QRT-PCR Master Mix). The fluorescence quantitative PCR instrument was MX3000P (purchased from Stratagene), the fluorescence dye was SYBR Green, the volume of the reaction system was 20 μL, and the cycle number of the reaction was 40. […]

chemokine receptor CXCR4 [2] = assay: Flow cytometry of CXCR4 on the surface of lymphatic endothelial cells; conditions: starved mouse lymphatic endothelial cells, 100 ng/mL VEGF-C, 24 hours
Experimental: Mouse primary lymphatic endothelial cells at passage 2 or 3 in good condition were selected and seeded into four 6 cm Petri dishes. Two groups of cells were cultured normally, while the other two groups of cells were treated by replacing the medium with a medium free of serum and growth factors when the cell density reached 80%, and starved overnight. One of the two groups was cultured for 24 hours after the medium was replaced with a serum-free culture medium containing 100 ng/mL of VEGF-C. The four groups of cells were detected for the expression level of chemokine receptor CXCR4 on the cell surface by flow cytometry. The group of cells cultured normally was used as negative control.
The cells were treated with 0.25% disodium EDTA (Ethylenediaminetetraacetic Acid Disodium Salt, EDTA), then washed with ice-cold PBS. The cells were suspended and centrifuged at a low speed (600 g, 3 minutes; the low-speed centrifugations in this experiment all referred to centrifugation at this speed for this time). The cells were resuspended in 1 mL of PBS containing 10% goat serum and then incubated for 15 minutes. […]
Each group of cells were resuspended in 1 mL of PBS containing 2% goat serum, and then 1 μg of fluorescein-labeled secondary antibody was added. […] The expression of CXCR4 on cell surface was analyzed by flow cytometry (FACS Calibur Flow Cytometry System, Becton Dickinson).

HIF-1α = assay: Immunoblotting of HIF-1α in lymphatic endothelial cells; conditions: mouse lymphatic endothelial cells, 100 ng/mL VEGF-C

B1: VEGF-C: Vascular Endothelial Growth Factor C, the major pro-lymphangiogenesis factor; purchased from R&D Systems (protein, UniProt P49767 112-227, looked up)
Vascular endothelial growth …: AHYNTEILKSIDNEWRKTQCMPREVCIDVGKEFGVATNTFFKPPCVSVYRCGGCCNSEGLQCMNTSTSYLSKTLFEITVPLSQGPKPVTISFANHTSCRCMSKLDVYRQVHSIIRR
chemokine receptor CXCR4 mRNA level (chemokine receptor CXCR4 [1]): significantly upregulated by about three times; also recorded: specifically up-regulated the expression of chemokine receptor CXCR4 | cell surface CXCR4 protein level (chemokine receptor CXCR4 [2]): could indeed upregulate the expression level of chemokine receptor CXCR4 | expression level of HIF-1α (HIF-1α): could indeed upregulate the expression level of HIF-1α; also recorded: could up-regulate the expression of CXCR4 and HIF-1α
